Assay [1] concerns the target T1, Aurora kinase C kinase domain (truncation not stated for this experiment), phosphorylated (human).
T1 sequence (Q9UQB9 whole entry, looked up): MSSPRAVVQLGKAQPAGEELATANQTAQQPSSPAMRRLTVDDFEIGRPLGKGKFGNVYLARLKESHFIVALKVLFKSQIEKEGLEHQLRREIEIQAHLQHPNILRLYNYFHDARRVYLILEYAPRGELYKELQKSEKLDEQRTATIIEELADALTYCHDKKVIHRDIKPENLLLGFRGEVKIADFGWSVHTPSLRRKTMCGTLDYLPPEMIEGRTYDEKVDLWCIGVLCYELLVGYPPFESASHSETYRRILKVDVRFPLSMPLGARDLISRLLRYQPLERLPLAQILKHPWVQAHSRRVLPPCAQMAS

For assay [2] the target is unchanged. The assay is described as follows: native MS; native nano-ESI ion mobility-mass spectrometry of the co-purified complexes, 250 mM ammonium acetate, ca. 10 µM, gentle ionisation conditions.
A further assay concerns the target T2, Aurora kinase A (AURKA) (Homo sapiens, UniProt O14965).
T2 construct: residues 122–403
T2 sequence (O14965 122-403): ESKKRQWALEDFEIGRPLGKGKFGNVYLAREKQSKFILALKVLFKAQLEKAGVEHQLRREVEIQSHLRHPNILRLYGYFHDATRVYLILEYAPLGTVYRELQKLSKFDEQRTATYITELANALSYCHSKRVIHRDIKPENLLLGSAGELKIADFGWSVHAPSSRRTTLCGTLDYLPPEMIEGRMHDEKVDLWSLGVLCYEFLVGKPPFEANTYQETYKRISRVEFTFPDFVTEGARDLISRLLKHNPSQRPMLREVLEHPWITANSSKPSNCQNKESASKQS
The assay is described as follows: crystal structure ([…] Å) and isothermal titration calorimetry. Type of assay: binding. (ITC needs no label: the signal is the heat of the interaction.)

Another assay addresses T3, Aurora kinase C (AURKC) (Homo sapiens, UniProt Q9UQB9).
T3 construct: residues 36–305 of AURKC isoform 1; with INCENP (residues 835–903, phosphorylated on Ser893 and Ser894)
The experiment in a line: co-crystal structure ([…] Å). Type of assay: binding.

The next assay deals with T4, Aurora kinase B (AURKB) (Homo sapiens, UniProt Q96GD4).
T4 construct: kinase domain co-expressed with INCENP residues 835–903; with INCENP (residues 835–903)
The experiment in a line: isothermal titration calorimetry; BLI kinetics (slow off-rate). The class given is binding.

Assay [3] concerns the target T5, Aurora kinase C kinase domain (truncation not stated for this experiment), phosphorylated.
T5 chain: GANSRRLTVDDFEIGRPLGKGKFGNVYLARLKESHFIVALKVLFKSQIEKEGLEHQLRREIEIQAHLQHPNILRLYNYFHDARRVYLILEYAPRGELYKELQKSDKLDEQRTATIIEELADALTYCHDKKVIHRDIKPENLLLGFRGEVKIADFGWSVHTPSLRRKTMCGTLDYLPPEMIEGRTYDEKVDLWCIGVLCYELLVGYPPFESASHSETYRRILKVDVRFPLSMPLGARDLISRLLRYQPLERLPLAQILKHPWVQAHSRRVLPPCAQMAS
The assay is described as follows: native mass spectrometry (native ESI-MS). The note with it: chain shown with the change; concentration of ca. 10 µM; same gentle ionisation conditions; parent: 0.

Results on six molecules are retold here after publication PMC6639382, “Structural mechanism of synergistic activation of Aurora kinase B/C by phosphorylated INCENP” (Nature Communications, 2019).

T3 sequence (Q9NQS7 835-903 partner, one chain of several): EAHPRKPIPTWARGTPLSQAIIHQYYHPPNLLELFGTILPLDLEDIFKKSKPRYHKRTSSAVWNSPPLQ
T4 sequence (Q96GD4 77-327 limits assumed): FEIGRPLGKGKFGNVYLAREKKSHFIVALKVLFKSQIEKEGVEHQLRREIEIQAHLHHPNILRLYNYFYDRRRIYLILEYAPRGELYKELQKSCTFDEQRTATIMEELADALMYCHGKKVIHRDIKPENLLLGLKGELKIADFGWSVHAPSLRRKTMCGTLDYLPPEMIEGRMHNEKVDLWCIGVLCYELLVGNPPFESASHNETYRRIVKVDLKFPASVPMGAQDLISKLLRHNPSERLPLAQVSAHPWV
T4 sequence (Q9NQS7 835-903 partner): as the sequence (Q9NQS7 835-903 partner, one chain of several) above

With “INCENP IN-box (residues 835–903), phosphorylated on the TSS motif (from UniProt Q9NQS7-1 835-903) (domain or fragment)”, in assay [1], the Kcat of the AURKC:INCENP complex on a peptide substrate was determined as 48800 and the Km(peptide) of the AURKC:INCENP complex was found to be 18.7 µM. The % complex formed in assay [2] turned out to be 100%.

In the case of “INCENP IN-box (residues 835–903) W897A (from UniProt Q9NQS7-1 835-903) (domain or fragment)”, in assay [1], the Kcat of the AURKC:INCENP complex on a peptide substrate was determined as 41800 and the Km(peptide) of the AURKC:INCENP complex was found to be 25.1 µM.

Consider “INCENP IN-box (residues 835–903) S893A (from UniProt Q9NQS7-1 835-903) (domain or fragment)”, for which, in assay [1], the Kcat of the AURKC:INCENP complex on a peptide substrate is 46300 and the Km(peptide) of the AURKC:INCENP complex stood at 83 µM.

“INCENP IN-box (residues 835–903) S894A (from UniProt Q9NQS7-1 835-903) (domain or fragment)”: in assay [1], the Kcat of the AURKC:INCENP complex on a peptide substrate is 38800 s⁻¹ and the Km(peptide) of the AURKC:INCENP complex was 83 µM.

For `COc1ccc(NC(=O)Nc2ccc3c(c2)C(=O)N([C@@H](C)CO)C[C@H](C)[C@H](CN(C)Cc2ccc4c(c2)OCO4)O3)cc1` [BRD-7880], the Kd – broadly, the concentration at which binding is half-saturated – on Aurora kinase A (AURKA) amounted to 341 nM; on Aurora kinase B (AURKB), 16 nM. Besides, the “co-crystal structure (1.75 Å)” value at Aurora kinase C (AURKC) is on record as “The co-crystal structure with AURKC:INCENP reveals a completely ordered BRD-7880 molecule (Fig. 5a) which binds in the ATP-binding site”.

B1: INCENP IN-box (residues 835–903), phosphorylated on the TSS motif, Q9NQS7-1 S893A; S894A; W897A (protein)
chain: MEAHPRKPIPTWARGTPLSQAIIHQYYHPPNLLELFGTILPLDLEDIFKKSKPRYHKRTAAAVANSPPLQ
For the molecule B1, the other: % unbound AURKC (% unbound AURKC) in assay [3] worked out at 40.
